Test results taken from article PMC9328315, “Streptococcus pneumoniae binds collagens and C1q via the SSURE repeats of the PfbB adhesin” (Molecular Microbiology, 2022).

How the values were obtained:
Assay in all cases: ELISA; titration: wells sensitized with 1 μg/ml of collagen type I, II, III, IV, VI or C1q; increasing concentrations of C‐SSURE or N‐SSURE (0,016–10 μg/ml), detected with anti‐His antibody; dissociation constants calculated from the titration curves (Figure 3c,d)
[1] = target: complement component C1q (human) (UniProt P02745)
[2] = target: type III collagen (calf (from calfskin)) (UniProt P04258)
[3] = target: type I collagen (calf (from calfskin)) (UniProt P02453)
human type VI collagen = human type VI collagen (human, UniProt P12109 20-1028; P12110 21-1019; P12111 26-3177); conditions: both partners purified
human type IV collagen = human type IV collagen (human, UniProt P02462 173-1669; P08572 184-1712); conditions: both partners purified

type I collagen (calf (from calfskin)), sequence (P02453 162-1217, chain 1 of 2): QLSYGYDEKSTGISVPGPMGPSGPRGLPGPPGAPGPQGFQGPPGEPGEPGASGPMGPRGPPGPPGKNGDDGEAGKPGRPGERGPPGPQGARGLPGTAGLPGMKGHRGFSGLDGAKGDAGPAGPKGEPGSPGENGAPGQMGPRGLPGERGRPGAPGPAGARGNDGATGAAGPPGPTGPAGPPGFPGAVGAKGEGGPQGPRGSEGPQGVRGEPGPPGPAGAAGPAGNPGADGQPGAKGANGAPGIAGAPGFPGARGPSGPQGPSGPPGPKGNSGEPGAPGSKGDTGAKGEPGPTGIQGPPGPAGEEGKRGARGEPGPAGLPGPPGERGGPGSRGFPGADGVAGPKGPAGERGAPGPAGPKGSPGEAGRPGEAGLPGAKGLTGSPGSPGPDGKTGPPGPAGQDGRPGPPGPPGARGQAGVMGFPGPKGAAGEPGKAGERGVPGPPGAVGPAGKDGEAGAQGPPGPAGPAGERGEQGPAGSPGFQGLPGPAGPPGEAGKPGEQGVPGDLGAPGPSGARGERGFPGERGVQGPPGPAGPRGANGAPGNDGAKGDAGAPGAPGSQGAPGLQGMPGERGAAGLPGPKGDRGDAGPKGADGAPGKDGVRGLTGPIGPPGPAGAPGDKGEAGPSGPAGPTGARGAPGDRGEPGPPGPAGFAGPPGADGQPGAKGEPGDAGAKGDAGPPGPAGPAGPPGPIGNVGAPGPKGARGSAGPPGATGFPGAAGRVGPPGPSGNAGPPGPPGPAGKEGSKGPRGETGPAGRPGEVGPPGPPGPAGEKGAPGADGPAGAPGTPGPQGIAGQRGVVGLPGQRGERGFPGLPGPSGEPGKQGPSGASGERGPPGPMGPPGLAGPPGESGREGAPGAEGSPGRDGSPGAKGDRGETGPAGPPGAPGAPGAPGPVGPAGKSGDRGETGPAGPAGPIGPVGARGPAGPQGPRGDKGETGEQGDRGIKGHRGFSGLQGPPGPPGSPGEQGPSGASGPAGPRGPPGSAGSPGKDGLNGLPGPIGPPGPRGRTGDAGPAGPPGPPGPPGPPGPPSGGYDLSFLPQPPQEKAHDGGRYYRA
type I collagen (calf (from calfskin)), sequence (P02465 80-1117, chain 2 of 2, further chain): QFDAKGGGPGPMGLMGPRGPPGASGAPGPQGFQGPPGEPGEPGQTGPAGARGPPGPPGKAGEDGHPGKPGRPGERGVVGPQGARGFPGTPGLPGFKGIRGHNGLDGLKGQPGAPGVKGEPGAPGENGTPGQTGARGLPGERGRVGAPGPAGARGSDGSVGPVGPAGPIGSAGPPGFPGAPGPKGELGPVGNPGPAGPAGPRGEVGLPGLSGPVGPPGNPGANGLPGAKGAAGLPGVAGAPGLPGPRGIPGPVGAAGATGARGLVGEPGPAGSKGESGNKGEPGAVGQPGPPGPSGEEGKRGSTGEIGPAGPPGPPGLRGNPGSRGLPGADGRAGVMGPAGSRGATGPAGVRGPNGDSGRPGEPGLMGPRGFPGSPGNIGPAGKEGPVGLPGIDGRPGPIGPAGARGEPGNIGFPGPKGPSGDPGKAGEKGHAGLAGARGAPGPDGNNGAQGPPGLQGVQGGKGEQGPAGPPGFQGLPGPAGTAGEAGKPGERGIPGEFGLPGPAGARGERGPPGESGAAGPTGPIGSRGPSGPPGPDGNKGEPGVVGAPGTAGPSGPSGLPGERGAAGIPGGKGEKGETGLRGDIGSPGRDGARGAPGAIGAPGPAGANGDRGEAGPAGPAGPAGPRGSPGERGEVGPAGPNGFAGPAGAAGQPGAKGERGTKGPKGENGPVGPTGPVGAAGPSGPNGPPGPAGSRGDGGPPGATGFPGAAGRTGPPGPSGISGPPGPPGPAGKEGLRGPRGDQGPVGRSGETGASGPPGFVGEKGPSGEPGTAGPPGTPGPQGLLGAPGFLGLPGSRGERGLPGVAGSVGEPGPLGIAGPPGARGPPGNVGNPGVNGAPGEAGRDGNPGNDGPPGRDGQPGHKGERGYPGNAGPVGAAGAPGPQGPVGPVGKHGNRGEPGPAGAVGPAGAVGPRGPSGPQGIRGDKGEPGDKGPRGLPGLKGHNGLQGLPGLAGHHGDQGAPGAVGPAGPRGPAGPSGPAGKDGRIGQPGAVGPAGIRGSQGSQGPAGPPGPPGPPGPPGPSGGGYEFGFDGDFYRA
complement component C1q (human), sequence (P02745 23-245, chain 1 of 3): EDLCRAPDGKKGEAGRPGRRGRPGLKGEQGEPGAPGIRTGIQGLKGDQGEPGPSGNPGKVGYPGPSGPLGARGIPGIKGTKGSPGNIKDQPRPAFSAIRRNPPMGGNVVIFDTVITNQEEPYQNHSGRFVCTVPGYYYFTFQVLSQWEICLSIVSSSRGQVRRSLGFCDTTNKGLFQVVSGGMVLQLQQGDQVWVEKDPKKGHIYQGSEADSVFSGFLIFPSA
complement component C1q (human), sequence (P02746 28-253, chain 2 of 3, further chain): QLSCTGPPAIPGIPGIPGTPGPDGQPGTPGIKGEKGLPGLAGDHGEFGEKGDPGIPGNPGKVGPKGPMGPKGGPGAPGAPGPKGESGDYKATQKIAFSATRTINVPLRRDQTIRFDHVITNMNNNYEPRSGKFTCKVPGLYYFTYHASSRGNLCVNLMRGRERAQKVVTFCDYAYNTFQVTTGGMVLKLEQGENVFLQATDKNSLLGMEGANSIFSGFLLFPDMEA
complement component C1q (human), sequence (P02747 29-245, chain 3 of 3, further chain): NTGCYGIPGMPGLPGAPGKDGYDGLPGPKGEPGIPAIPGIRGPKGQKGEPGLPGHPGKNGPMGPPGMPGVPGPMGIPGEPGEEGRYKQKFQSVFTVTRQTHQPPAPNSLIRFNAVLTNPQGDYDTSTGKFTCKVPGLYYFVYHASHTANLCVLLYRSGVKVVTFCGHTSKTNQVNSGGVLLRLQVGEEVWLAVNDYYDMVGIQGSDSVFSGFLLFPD
type III collagen (calf (from calfskin)), sequence (P04258 whole entry): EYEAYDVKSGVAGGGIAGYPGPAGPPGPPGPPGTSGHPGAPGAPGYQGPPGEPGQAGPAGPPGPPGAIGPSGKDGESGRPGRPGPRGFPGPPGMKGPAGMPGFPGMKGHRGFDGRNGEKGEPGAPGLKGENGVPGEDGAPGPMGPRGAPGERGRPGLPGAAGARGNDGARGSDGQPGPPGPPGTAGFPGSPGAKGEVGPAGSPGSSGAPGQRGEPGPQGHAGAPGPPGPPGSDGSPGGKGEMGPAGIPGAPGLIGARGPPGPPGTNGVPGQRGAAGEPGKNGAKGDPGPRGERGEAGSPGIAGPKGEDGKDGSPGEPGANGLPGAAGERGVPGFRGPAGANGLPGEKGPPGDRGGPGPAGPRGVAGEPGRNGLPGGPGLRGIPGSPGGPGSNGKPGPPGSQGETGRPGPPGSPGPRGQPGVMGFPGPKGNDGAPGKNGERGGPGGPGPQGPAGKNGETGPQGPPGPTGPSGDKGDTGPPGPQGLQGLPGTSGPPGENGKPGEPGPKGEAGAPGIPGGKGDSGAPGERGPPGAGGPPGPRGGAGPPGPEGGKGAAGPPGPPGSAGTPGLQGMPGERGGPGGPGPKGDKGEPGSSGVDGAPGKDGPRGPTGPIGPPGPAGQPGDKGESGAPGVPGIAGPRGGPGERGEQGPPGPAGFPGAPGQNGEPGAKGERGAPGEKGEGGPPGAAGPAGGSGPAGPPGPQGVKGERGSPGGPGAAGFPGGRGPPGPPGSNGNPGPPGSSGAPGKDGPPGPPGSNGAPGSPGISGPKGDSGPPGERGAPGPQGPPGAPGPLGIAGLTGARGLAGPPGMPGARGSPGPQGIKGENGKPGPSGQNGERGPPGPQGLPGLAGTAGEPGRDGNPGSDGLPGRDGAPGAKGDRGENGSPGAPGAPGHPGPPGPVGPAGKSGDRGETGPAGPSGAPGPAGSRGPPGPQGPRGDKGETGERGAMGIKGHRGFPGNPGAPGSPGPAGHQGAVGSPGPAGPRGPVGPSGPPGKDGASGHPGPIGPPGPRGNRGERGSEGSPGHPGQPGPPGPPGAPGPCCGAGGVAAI

C‐SSURE, recombinant polyhistidine‐tagged polypeptide encompassing amino acids 902–1053 (C‐terminal SSURE domain) of the PfbB protein (domain or fragment)
Kd [1]: 5210 nM
Kd [2]: 1160 nM
Kd [3]: 1720 nM

B1: N‐SSURE, recombinant polyhistidine‐tagged polypeptide encompassing amino acids 144–293 (N‐terminal SSURE domain) of the PfbB protein (domain or fragment)
chain: AETTPEQVKGGVKENTKDSIDVPAAYLEKAEGKGPFTAGVNQVIPYELFAGDGMLTRLLLKASDNAPWSDNGTAKNPALPPLEGLTKGKYFYEVDLNGNTVGKQGQALIDQLRANGTQTYKATVKVYGNKDGKADLTNLVATKNVDININ
notes: also called N‐terminal repeat; SSURE 1
Kd (human type VI collagen): 1200 ± 300 nM
Kd (human type IV collagen): 1580 ± 100 nM
